The values that follow come from patent US20070172906A1 (BIOSITE, published 2007).

In this test the target is T1, Human latent protein C (Enzyme Research Labs, Catalog # HPC 1001) (human, UniProt P04070 43-197; P04070 200-461).
T1 construct: Bought protein; It was biotinylated for panning and ELISA
The test can be described thus: method not stated.

Where only a bound is given, the exact number is not on record here.

T1 sequence (P04070 43-197, form in doubt, chain 1 of 2): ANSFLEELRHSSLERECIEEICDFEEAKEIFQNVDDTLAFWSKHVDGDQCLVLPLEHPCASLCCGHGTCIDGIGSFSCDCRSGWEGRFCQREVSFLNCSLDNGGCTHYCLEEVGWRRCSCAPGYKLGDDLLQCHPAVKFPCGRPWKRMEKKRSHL
T1 sequence (P04070 200-461, form in doubt, chain 2 of 2): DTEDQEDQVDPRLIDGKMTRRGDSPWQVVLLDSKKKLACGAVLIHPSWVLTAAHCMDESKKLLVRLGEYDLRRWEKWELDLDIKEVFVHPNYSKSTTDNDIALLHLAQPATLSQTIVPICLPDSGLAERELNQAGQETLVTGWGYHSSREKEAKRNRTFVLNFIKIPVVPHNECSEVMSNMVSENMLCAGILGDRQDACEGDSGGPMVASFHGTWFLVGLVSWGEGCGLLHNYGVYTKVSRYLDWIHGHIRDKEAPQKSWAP

B1: Z1XM01701 (antibody, V domains shown)
VH: EVMLVESGGGLVKPGGSLKLSCAASGFTFSNYAMSWVRQTPAKRLEWVATISGGGGNTYYPDSVKGRFTISRDNAKNTLYLQMSSLRSEDTALYYCARHPNRFETAVDYWGQGTSVIVSS
VL: QIVLTQSPAILSASPGEKVTMTCRASSSVSSVHWYQQKPGSSPKPWIYATSNLASGVPTRFSGGGSGTSYSLTISRVEAEDAATYSCQQWSSDPPTFGGGTKLEIK
notes: It was subcloned into a pBR322 expression vector, expressed, purified and biotinylated; also called SE61z1zm-01071
For B1, the Ka was not below 1e+10 M⁻¹.

B2: Z3XM01011 (antibody, V domains shown)
VH: EVQLQQSGPGLVEPSQSLSITCTVSGFSLRSYGVHWVRQSPRKGLEWLGGIWSGGRIDYNAAYISRLTINKDNSKSQVFFKMNSLQADDTAIYYCVRKAIDLGDYYGMDYWGQGTSVTVSS
VL: DIVMTQFSQILSTSVGDRVSITCKASQDVGTAVAWYQQKPGQSPKLLIYWASTRHTGVPGRFTGSGSGTDFTLTIISVQSEDLADYFCQQYSSYPTFGGGTKLEIK
notes: Mouse monoclonal antibody from the same Fab phage library after one more round of panning, subcloned into a pBR322 expression vector
For B2, the Ka is not below 1e+10 M⁻¹.
